Experimental data taken from US7935785B2, “Selective substrates for matrix metalloproteinases” (Sanford-Burnham Medical Research Institute, priority 2001, dated 2011).

B1: Eph B1-Fc fusion protein: extracellular domain of rat EphB1 (residues 1-538) fused to Fc region of human IgG, R&D Systems (protein)
chain: MEETLMDTRTATAELGWTANPASGWEEVSGYDENLNTIRTYQVCNVFEPNQNNWLLTTFINRRGAHRIYTEMRFTVRDCSSLPNVPGSCKETFNLYYYETDSVIATKKSAFWSEAPYLKVDTIAADESFSQVDFGGRLMKVNTEVRSFGPLTRNGFYLAFQDYGACMSLLSVRVFFKKCPSIVQNFAVFPETMTGAESTSLVIARGTCIPNAEEVDVPIKLYCNGDGEWMVPIGRCTCKAGYEPENSVACKACPAGTFKASQEAEGCSHCPSNSRSPSEASPICTCRTGYYRADFDPPEVACTSVPSGPRNVISIVNETSIILEWHPPRETGGRDDVTYNIICKKCRADRRSCSRCDDNVEFVPRQLGLTECRVSISSLWAHTPYTFDIQAINGVSSKSPFPPQHVSVNITTNQAAPSTVPIMHQVSATMRSITLSWPQPEQPNGIILDYEIRYYEKEHNEFNSSMARSQTNTARIDGLRPGMVYVVQVRARTVAGYGKFSGKMCFQTLTDDDYKSELREQ
modifications: left off: small tags and cut ends; a dimerising Fc or GST
notes: extracellular domain of rat EphB1 (residues 1-538) fused to Fc region of human IgG, R&D Systems

Key:
Type in all cases: biochemical
MMP-2 [1] = target: T1, MMP-2 (Homo sapiens, UniProt P08253); assay: Peptide substrate hydrolysis kinetics, fluorescamine incorporation assay (kcat/Km, selectivity ratio); settings: MMP-2 substrates
T1 construct: the cDNA encoding the catalytic domain of MMP-2 was generated by PCR; made in house; host or cells: HEK 293 cells
T1 sequence (P08253 110-465 limits assumed): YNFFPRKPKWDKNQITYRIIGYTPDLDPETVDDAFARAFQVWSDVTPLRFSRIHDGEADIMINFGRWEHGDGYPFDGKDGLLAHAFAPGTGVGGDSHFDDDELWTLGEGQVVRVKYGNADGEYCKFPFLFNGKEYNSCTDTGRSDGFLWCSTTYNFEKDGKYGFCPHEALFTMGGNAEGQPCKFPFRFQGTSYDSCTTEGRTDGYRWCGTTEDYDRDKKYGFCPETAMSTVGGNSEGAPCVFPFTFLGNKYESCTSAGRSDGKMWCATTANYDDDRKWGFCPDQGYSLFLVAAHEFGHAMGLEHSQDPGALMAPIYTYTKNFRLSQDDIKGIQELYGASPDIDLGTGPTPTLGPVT
Experimental: (§1) In order to measure the selectivity of individual substrates for one metalloproteinase over another, representative polypeptides from the selected phage were synthesized and their rate of hydrolysis by several matrix metalloproteinases was determined. In some cases these representative polypeptide sequences contained an amino-terminal serine (S) and glycine (G) and/or a carboxyl-terminal threonine (T) and alanine (A) since these residues were used in the construction of the phage substrate library, although one skilled in the art will understand that other amino acid residues could be substituted at these positions. The kinetic parameters of substrate hydrolysis were measured using a fluorescamine incorporation assay that has been described previously (Ding et al., PNAS, 92:7627-7631 (1995); Coombs et al., Chem. and Biol. 5:475-488 (1998); Fields et al., J. Biol. Chem., 262:6221-6226 (1987); Netzel-Arnett., et al. J. Biol. Chem., 266:6747-6755 (1991)).
(§2) Briefly, individual metalloproteinases were incubated with the individual polypeptide substrates at concentrations ranging from 100-800 µM. At selected time points the reactions were stopped by the addition of 1,10 phenanthroline. Polypeptide hydrolysis was determined by the addition of fluorescamine followed by detection at an excitation wavelength of 355 nm and an emission wavelength of 460 nm. The data were transformed to double reciprocal plots (1/[S] vs 1/vi) to determine Km and kcat. In some cases Km and kcat could not be determined individually, but the specificity constant, kcat/Km, was derived by the equation: […] (Netzel-Arnett, supra, and Zumla et al., J. Immunol. Methods 149:69-76 (1992)).
(§3) The selectivity ratio of each polypeptide substrate was calculated by dividing the kcat/Km value for one matrix metalloproteinase by the kcat/Km value for the other matrix metalloproteinases that were tested. […] In many cases the polypeptide substrates are selective for one matrix metalloproteinase compared to several other matrix metalloproteinases.
(§4) The kinetic parameters of substrate hydrolysis were measured using a fluorescamine incorporation assay that has been previously described (Ding et al., PNAS, 92:7627-7631 (1995); Coombs et al., Chem. and Biol. 5:475-488 (1998); Fields et al., J. Biol. Chem., 262:6221-6226 (1987); Netzel-Arnett., et al. J. Biol. Chem., 266:6747-6755 (1991)). Briefly, MMP-2, MMP-9, MMP-7, or MMP-13 were incubated with individual peptide substrates at concentrations ranging from 100-800 μM in 50 mM Tris, pH 7.5, 100 mM NaCl, 10 mM CaCl2, 50 μM ZnCl2. At selected time points the reactions were stopped by the addition of 1,10-phenanthroline. Peptide hydrolysis was determined by the addition of fluorescamine followed by detection at λex 355 nm and λem 460 nm. The data were transformed to double reciprocal plots (1/[S] vs 1/vj) to determine Km and kcat. […] A double recipricol plot of the hydrolysis of peptide B 74 is shown as a representative plot (FIG. 4).

MMP-9 [2] = target: T2, MMP-9 (Homo sapiens, UniProt P14780); assay: Peptide substrate hydrolysis kinetics, fluorescamine incorporation assay (kcat, Km, kcat/Km, selectivity ratio); settings: for selectivity ratio: kcat/Km for MMP-9 divided by kcat/Km for MMP-1 / selectivity ratio: kcat/Km for MMP-9 divided by kcat/Km for MMP-7: MMP-9 substrates
T2 construct: a recombinant form of the catalytic domain of MMP-9 expressed in HEK 293 cells; made in house; host or cells: HEK 293 cells
T2 sequence (P14780 94-444 limits assumed): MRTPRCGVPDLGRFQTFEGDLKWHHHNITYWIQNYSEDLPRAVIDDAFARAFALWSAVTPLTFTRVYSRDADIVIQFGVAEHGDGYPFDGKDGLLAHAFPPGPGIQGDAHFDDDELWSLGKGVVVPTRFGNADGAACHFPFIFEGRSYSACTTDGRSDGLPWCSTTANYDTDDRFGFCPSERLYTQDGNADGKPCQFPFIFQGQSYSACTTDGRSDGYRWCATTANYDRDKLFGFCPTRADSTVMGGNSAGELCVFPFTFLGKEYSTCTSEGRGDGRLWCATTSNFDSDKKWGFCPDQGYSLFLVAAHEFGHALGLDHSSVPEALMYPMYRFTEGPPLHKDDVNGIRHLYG
Experimental: as §1, §2, §3, §4
The Michaelis constant (Km) and first-order rate constant of substrate peptide turnover (kcat) were measured by incubating a range of each peptide with MMP-9. Peptide hydrolysis was measured by incorporation of fluorescamine onto newly formed amino-termini as previously described. From these measurements, kcat and Km were derived for each peptide using double-reciprocal plots of 1/[S] vs 1/vj. Among the peptides, the kcat values ranged from 9 s^−1 to 703 and Km values were generally in the high micromolar to low millimolar range.

MT1-MMP = MT1-MMP (Homo sapiens, UniProt P50281); assay: Peptide substrate hydrolysis kinetics, selectivity between MT1-MMP and MMP-9; settings: MT1-MMP substrates
Experimental: as §1, §2, §3
Polypeptide substrates for Membrane type-Matrix Metalloproteinase 1 (MT1-MMP) were identified using substrate phage display as described for MMP-2 and MMP-9. Synthetic peptides that are analogous to the phage sequences were used to quantitate the level of selectivity between MT1-MMP and MMP-9 (see Table II).

MMP-2 [3] = target: T1, MMP-2; assay: Cleavage of recombinant Eph receptor-Fc fusion proteins, SDS-PAGE; settings: 1.8 μM fusion protein, 280 nM MMP-2, 4 hours, 37° C.
Experimental: (§5) Recombinant fusion proteins between EphB1, EphB2 and the Fc domain of IgG were purchased from R&D Systems Inc. In these constructs, the extracellular domain of rat EphB1 (amino acid residues 1-538) and mouse EphB2 (amino acid residues 1-548) are fused to the Fc region of human IgG via a short polypeptide linker. The fusion proteins (1.8 μM) were incubated for 4 hours at 37° C. with 280 nM of either MMP-2 or MMP-9. Following incubation, samples were resolved by 10% SDS-PAGE, and samples were visualized by Coomassie staining. The N-terminus of the cleaved Eph B1 was determined by automated Edman degradation of protein blotted to PVDF membranes.
(§6) The Eph B1 and Eph B2 fusion proteins were incubated with equimolar amounts (280 nM) of MMP-2 and MMP-9 for four hours. The extent of hydrolysis was gauged by SDS-PAGE (FIG. 3). […] The extent of cleavage by MMP-9 was far lower (lane 3). […] The site of hydrolysis within Eph B1 was determined by sequencing the N-terminus of one of the released fragments. […] This is one of the predicted cleavage sites in EphB1. These findings illustrate that motifs found to be selective for MMP-2 by substrate phage display, can act as selective substrates within the context of whole proteins. This experiment also illustrates that the three dimensional conformation of the putative cleavage site will also control the extent of hydrolysis.

MMP-9 [4] = target: T2, MMP-9; assay: as above; settings: 1.8 μM fusion protein, 280 nM MMP-9, 4 hours, 37° C.
Experimental: as §5, §6

[5] = hydrolysis by MMP-9, Ala instead of Leu at P1′

Molecule	selectivity ratio: kcat/Km for MMP-2 divided by kcat/Km for MMP-1 (MMP-2 [1])	selectivity ratio: kcat/Km for MMP-2 divided by kcat/Km for MMP-7 (MMP-2 [1])	selectivity ratio: kcat/Km for MMP-2 divided by kcat/Km for MMP-9 (MMP-2 [1])	further results
A3: MMP-2 selective substrate peptide from phage clone A3, sequence A-K-P-R-A-L-T-A (AKPRALTA)	14	21	2	
A6: MMP-9 selective substrate peptide from phage clone A6, sequence S-G-P-R-A-V-S-T-T-A (Table V) (PRAVST)				selectivity ratio: kcat/Km for MMP-9 divided by kcat/Km for MMP-1 (MMP-9 [2]): 5; selectivity ratio: kcat/Km for MMP-9 divided by kcat/Km for MMP-7 (MMP-9 [2]): 47
A11: MMP-9 selective substrate peptide from phage clone A11, sequence S-G-K-I-P-R-T-L-T-A (Table V) (KIPRTLTA)				selectivity ratio: kcat/Km for MMP-9 divided by kcat/Km for MMP-1 (MMP-9 [2]): 3; selectivity ratio: kcat/Km for MMP-9 divided by kcat/Km for MMP-7 (MMP-9 [2]): 10
A13: MMP-2 selective substrate peptide from phage clone A13, sequence G-A-V-S-W-L-L-T (GAVSWLLT)	28	13	15	
A21: MMP-2 selective substrate peptide from phage clone A21, sequence H-M-H-K-A-L-T-A (HMHKALTA)			8	
A34: MMP-2 selective substrate peptide from phage clone A34, sequence N-R-Y-S-S-L-T-A (NRYSSLTA)	24	84	40	
A42: MT1-MMP selective substrate peptide from phage clone A42, sequence S-G-R-I-G-F-L-R-T-A (Table V) (RIGFLRT)				selectivity ratio: kcat/Km for MT1-MMP divided by kcat/Km for MMP-9 (MT1-MMP): 54
A176: MT1-MMP selective substrate peptide from phage clone A176, sequence S-G-R-S-E-N-I-R-T-A (Table V) (RSENIRT)				selectivity ratio: kcat/Km for MT1-MMP divided by kcat/Km for MMP-9 (MT1-MMP): 73
AC-SGKIPRTATA-NH2 (Ac-SGKIPRTATA-NH2) [Clone A11m2]				kcat/Km ratio (MMP-9 [2]; hydrolysis by MMP-9): 2,000 M^−1s^−1; effect of substitution on kcat and Km (MMP-9 [2]; [5]): deleterious effects on both kcat and Km; reduction of kcat/Km ratio relative to peptide A11 (MMP-9 [2]; [5]): ~30 fold
B37: MMP-2 selective substrate peptide from phage clone B37, sequence A-N-I-S-D-L-T-A (ANISDLTA)	58	17	71	
B49: MMP-2 selective substrate peptide from phage clone B49, sequence L-R-L-A-A-I-T-A (LRLAAITA)	13	6	14	
B74: MMP-2 selective substrate peptide from phage clone B74, sequence E-S-L-A-Y-Y-T-A (ESLAYYTA)	140	354	108	
B96: MT1-MMP selective substrate peptide from phage clone B96, sequence S-G-L-I-S-H-S-I-T-A (Table V) (LISHSITA)				selectivity ratio: kcat/Km for MT1-MMP divided by kcat/Km for MMP-9 (MT1-MMP): 5
B149: MT1-MMP selective substrate peptide from phage clone B149, sequence S-G-A-R-Y-R-W-L-T-A (Table V) (ARYRWLTA)				selectivity ratio: kcat/Km for MT1-MMP divided by kcat/Km for MMP-9 (MT1-MMP): 3
B175: MT1-MMP selective substrate peptide from phage clone B175, sequence S-G-R-A-M-H-M-Y-T-A (Table V) (RAMHMYT)				selectivity ratio: kcat/Km for MT1-MMP divided by kcat/Km for MMP-9 (MT1-MMP): 19
C9: MMP-2 selective substrate peptide from phage clone C9, sequence R-S-L-S-R-L-T-A (RSLSRLTA)	52	35	198	
C15: MMP-9 selective substrate peptide from phage clone C15, sequence S-G-K-G-P-R-Q-I-T-A (Table V) (KGPRQITA)				selectivity ratio: kcat/Km for MMP-9 divided by kcat/Km for MMP-1 (MMP-9 [2]): 12; selectivity ratio: kcat/Km for MMP-9 divided by kcat/Km for MMP-7 (MMP-9 [2]): 14
B1				extent of hydrolysis by MMP-2 (SDS-PAGE) (MMP-2 [3]): almost quantitatively cleaved; extent of hydrolysis by MMP-9 (SDS-PAGE) (MMP-9 [4]): far lower
